Laboratory results: a protein production outcome set (Wang et al. 2014)

Experiment: label from the status in PepcDB records

| Sequence | protein production |
| --- | --- |
| MSLLFLAMAPKPKPWVQTEGPEKKKGRQAGREEDPFRSTAEALKAIPAEKRIIRVDPTCPLSSNPGTQVYEDYNCTLNQTNIENNNNKFYIIQLLQDSNRFFTCWNRWGRVGEVGQSKINHFTRLEDAKKDFEKKFREKTKNNWAERDHFVSHPGKYTLIEVQAEDEAQEAVVKVDRGPVRTVTKRVQPCSLDPATQKLITNIFSKEMFKNTMALMDLDVKKMPLGKLSKQQIARGFEALEALEEALKGPTDGGQSLEELSSHFYTVIPHNFGHSQPPPINSPELLQAKKDMLLVLADIELAQALQAVSEQEKTVEEVPHPLDRDYQLLKCQLQLLDSGAPEYKVIQTYLEQTGSNHRCPTLQHIWKVNQEGEEDRFQAHSKLGNRKLLWHGTNMAVVAAILTSGLRIMPHSGGRVGKGIYFASENSKSAGYVIGMKCGAHHVGYMFLGEVALGREHHINTDNPSLKSPPPGFDSVIARGHTEPDPTQDTELELDGQQVVVPQGQPVPCPEFSSSTFSQSEYLIYQESQCRLRYLLEVHL | not failed |
| MRIASLVPSITELLFDLGLADQLVARTGFCIHPEPAVRAVAKVGGTKDVKLDRLRALAPTHVVVNIDENRRETVDEIRTFVPHVIVTHPCAPEDNLALYRLLGGIFGRLEHHHHHH | failed |
| MGSSSYAVIPGAAPRSGRRSIRAVLVLALTAGVATVVPAAQADTSTPAAAPVAAKPYMGWSSWSMQSSKYPGLNPDGDYSYLTEANVLKQTDALASKLKKYGYDHVNIDAGWWMDKNWKTQFDQYGRQTPDPVRFPHGMKSVADHIHSKGLKAGIYLPVGLEKGAYGDGKTPISKAPGCTTADIVYSDLRTTNGWDNAYKIDFDKSCAQKYIDSQAQMFADWGYDFLKLDGVGPGSFKSGDNYNNVADVAAWQKAIAATGRPIHLELSWSLDIGHAADWKKYSNGWRIDTDIECYCNTLVTWENSVNDRWDDAPAWSSKAGPGGWNDLDAIDVGNGEMDGLTKAERQSYMTLWAINKSPLFTGDDLTKLDSYGVSLLTNKEVIAVDQNTSPVARPVTPVGDQQVWGTKNADGSYTVALFNLGDSPASVTAHWASFGFTGNASVRDLWNKTNLGTHKNKITEALPAHGSRLFTIKPGGGTLATTGYEAEAAANTLSGNASVGGCDACSGGKKVGNLYTGGKLRINDITVKKDGIYTVKVAYVSGDPRSVTVLSNSGNGTSLKFPSTGDWSTAETVSVQLALKAGSNTITFDSGSGYAPDIDRIVVPQSV | failed |
| PLALFKWDLGFNLLECNQSAISMLNYTEDELKQCDFISALVPINEQKRVNKTCSDLLVNEGGEHGFNSLIKQNGNIILTEWHNSLIKDDS | failed |
| METDPDYSMVLLTENFPPYNMAINGKNFAQEDNIDGIAVDIVREMFKRAGIKYSLTLRFPWDRIYKLALEKPGYGVFVTARLAEREDKFKWVGPIGPDDWVLLAKGDSPITLGSLDEAKKYRIGAYKGDAIAEFLGKNGFEADLEHHHHHH | failed |
| MTPLHGAATPASASAAGSMKASHEASADPRSRFFDERAATWEQRCYPPEARRRLAALVPRFGVERGDCVLDMGTGTGVLIPYLRDGVGDAGRILSFDVSFEMVRRAGCKERDAKGLCVQATAMRIPARDGVFDRVVCFAAFPHFADKPAAMREMARVVRPGGEVVIAHLLSRAELARHHGGHPAVAEDALPDDATMRGLMHDAGLVEGSITDGPGMYVARARKPRTCRAGEGGVPGTPGTPGGRAGGSAGGEGAESAIAGDAEGNGSGVEAGFEARRVFTALKQNDAMHHSAVYGVLSGLLRAFACDAALPHGAPGQGGALRILDVGCGEAADVVQALEGVTVGAYTGVDTSAPALAEARRHLAALGCPVTLIEGDYRLALNTSQGSVDVLWMGLFLHHLPRALKADFLHTAHGLLAPGGMVLAHDPIMGEDDTRETMLARMEAIGRERWHFLTPEEVGMVHRHWSCHGHQERFSDLCALGEAAGFEVDMVWHDADRTYGLVRFMRRG | failed |
| MAGAPGPLRLALLLLGMVGRAGPRPQGATVSLWETVQKWREYRRQCQRSLTEDPPPATDLFCNRTFDEYACWPDGEPGSFVNVSCPWYLPWASSVPQGHVYRFCTAEGLWLQKDNSSLPWRDLSECEESKRGERSSPEEQLLFLYIIYTVGYALSFSALVIASAILLGFRHLHCTRNYIHLNLFASFILRALSVFIKDAALKWMYSTAAQQHQWDGLLSYQDSLSCRLVFLLMQYCVAANYYWLLVEGVYLYTLLAFSVLSEQWIFRLYVSIGWGVPLLFVVPWGIVKYLYEDEGCWTRNSNMNYWLIIRLPILFAIGVNFLIFVRVICIVVSKLKANLMCKTDIKCRLAKSTLTLIPLLGTHEVIFAFVMDEHARGTLRFIKLFTELSFTSFQGLMVAILYCFVNNEVQLEFRKSWERWRLEHLHIQRDSSMKPLKCPTSSLSSGATAGSSMYTATCQASCS | failed |
| MRILADTNVIIDALTSREPWNKSAEEIFLMAANHTIEMYITASSATDIYYLIRKHLHNTETAKMIMGKLYSLTGILEVTADDCMDALASAISDYEDAVVEKVASRKDMDYIVTRNIKDYQAGGTKIILPDDFVKLVEEELEHHHHHH | failed |
| MKDIIRFILRLVQNPIVLAILWFGVAIRGFWVSWTEGLANNYLIFSRSFFHALEQTPLYVEYPKEYFDLFLYGIPFTLLIAPFSIMPTMVGSALWSLCNALLLYFAIKKLEFEKWKTAIIVWLSYNGLYLSVVTQQYNAAVAAFILFTFILVERKKDFWAALMIVLGTLTKIYGIVGLAFFLFSKRKLYFLWGILFWAFVLFVVPMFYTSPQYVFDSYKEWVSILVVKNDVNELSFYQNISLLGMVRKITHAVEYSDMWLIIPGIVLFLLPYLRIGQYENRNFRLSFLASVLLFMVLFSTGTEECGYVGALIGVGIWYVSTPTYKKSFVLNTCLLLFCFALTAASSSSILFSKHFRTEYITSFALKALPCAIIWFKIIWEQLTQDYTSRTPTPFLHKKDDERIDVILPCYNPHEGWEQQLIEKHKELEGMLNGYNIRFIVVNDGSKRGFTEEAVLRLTNNLPNTIIVDNKINQGKGAAVRDGIAHSDSELALYTDYDFPYKIESVCQVIKYLEEGYDVVVANRNHTYYSQLSTRRKLASHASRFLNFMLLGLTHTDTQGGLKGFNCKGKAFLASTRIKQFLFDTEFIYKASLDDTTFIKEVPVDLRGEVMLPDMKKGVFVNELKNLLMICWRG | failed |
| MSLTSLIIAEDQNMLRQAMVQLIKLHGDFEILADTDNGLDAMKLIEEYNPNVVILDIEMPGMTGLEVLAEIRKKHLNIKVIIVTTFKRPGYFEKAVVNDVDAYVLKERSIEELVETINKVNNGEKEGHHHHHH | not failed |
| MSLEAAGGIVWRWKAGSDIANDPAIASSKSAQEQLDSIEVCIVHRPKYDDWSWPKGKLEQNETHRHAAVREIGEETGSPVKLGPYLCEVEYPLSEEGKKTRHSHDCTADTKHTLYWMAQPISADDAEHLLDAFGPVHRADVGEINDIVWVSVREARKILSHSTDKDTLAVFVDRVQEGAATAQNLLIVRHAKAESRKSWKGTDANRPITPKGAAMAFALNRELACFNPTRLATSPWLRCQETLQVLSWQTERPMEHINTLTEDAFAEHPAVSWLAFREQITQTLNSRETTAICMHRPVIGGMYDHLRGLCARKQLAKQLIAKSPYMPTGTAMSLFIIDTPQGPSIIDIQKVSPIVYEGHHHHHH | not failed |
| MSALSRWLLIPPVSARLSERYQGYRRHGASPFSAALGCLWTILAWIVFPLEHPRWQRIRDGHKALYPHINAARPRPLDPARYLIQTLWLVMISSTKERHEPRWRSFARLKDVRGRYHQWMDTLPERVRQKTTHLEKEKELGHLSNGARRFILGVIVTFSLILALICITQPFNPLSQFIFLLLLWGVALLVRRMPGRFSALMLIVLSLTVSCRYIWWRYTSTLNWDDPVSLVCGLILLFAETYAWIVLVLGYFQVVWPLNRQPVPLPKEMSQWPTVDIFVPTYNEDLNVVKNTIYASLGIDWPKDKLNIWILDDGGRESFRQFARHVGVHYIARATHEHAKAGNINNALKHAKGEFVAIFDCDHVPTRSFLQMTMGWFLKEKQLAMMQTPHHFFSPDPFERNLGRFRKTPNEGTLFYGLVQDGNDMWDATFFCGSCAVIRRKPLDEIGGIAVETVTEDAHTSLRLHRRGYTSAYMRIPQSAGLATESLSAHIGQRIRWARGMVQIFRLDNPLFGKGLKLAQRLCYLNAMFHFLSGIPRLIFLTAPLAFLLLHAYIIYAPALMIALFVIPHMVHASLTNSKIQGKYRHSFWSEIYETVLAWYIAPPTLVALINPHKGKFNVTAKGGLVEEKYVDWVISRPYIFLVLLNLLGVAAGVWRYYYGPENETLTVIVSLVWVFYNLVILGGAVAVSVESKQVRRAHRVEIAMPGAIAREDGHLFSCTVHDFSDGGLGIKINGQAQVLEGQKVNLLLKRGQQEYVFPTQVVRVTGNEVGLQLMPLTTKQHIDFVQCTFARADTWALWQDSFPEDKPLESLLDILKLGFRGYRHLAEFAPPSVKVIFRSLTALIAWIVSFIPRRPERQAAIQPSDRVMAQAQQ | failed |
| MAEASPQPGRYFCHCCSVEIVPRLPDYICPRCESGFIEELPEETRNTENGSAPSTAPTDQNRQPFENVDQHLFTLPQGYSQFAFGIFDDSFEIPTFPPGAQADDGRDPESRREREHQSRHRYGARQPRARLTARRATGRHEGVPTLEGIIQQLVNGIISPAAVPSLGLGPWGVLHSNPMDYAWGANGLDTIITQLLNQFENTGPPPADKEKIQALPTVPVTEEHVGSGLECPVCKEDYALGESVRQLPCNHLFHDSCIVPWLEQHDSCPVCRKSLTGQNTATNPPGLTGVGFSSSSSSSSSSSPSNENATSNS | not failed |
| MRPVDEQWIEILRIQALCARYCLTIDTQDGEGWAGCFTEDGAFEFDGWVIRGRPALREYADAHARVVRGRHLTTDLLYEVDGDVATGRSASVVTLATAAGYKILGSGEYQDRLIKQDGQWRIAYRRLRNDRLVSDPSVAVNVADADVAAVVGHLLAAARRLGTQMSDT | not failed |
| MSDAAISGRREQGWLAGLGNWIPARFRRDIPVVPVVRLSGTIGAVTPLRPGLTLAGVAKLLDRAFSTRNAKAVALAINSPGGSPVQSRLIYLRIRALAAEKKLPVYAFVEDVAASGGYMIACAADEIYCDPSSILGSIGVVGGGFGFQELIRKIGVERRLYTAGERKAQLDPFLPEDPQEVARLKVLQQEIHALFIALVKESRGTRLKGEESKLFTGEYWAGATSVSLGLADSIGDLRAVLRGKFGDKVRTPLISPPTGLLANLSRKSSGAGASLDGVAALPESMITALETRAIWAKYGF | failed |
| MAGAYLHIPFCEHICYYCDFNKVFIEGQPVDDYVAMLLKEMRMVMAEHPEEKIQTVYVGGGTPSTLTPTQLATLCQGIHDILHFDQGEFTFEANPNDLLTTEKLQVLHDYGVNRLSIGVQSFNDDVLRRIGRIHRAKDVYTAIANARQVGFDNISIDLIFRLPDQSRDDFLTSLQKALALDLPHYSTYSLILERKTIFYNLMRQGKLRLPTQDVEADMYQDAIDLMEAHGRHQYEISNFAKDGYQCEHNLLYWRNDKYFGFGAGAFGYLGRDRYHNYGPIKQYLTPLHADHLPVLEHHLVPQSEQIEEEMFLGLRTMQGVSEARFYDRYHMTVDAIYGETVPELVSQGLVVRQDGYIRLTNKGKFLGNEVFQRFLIDEPLVLEHHHHHH | not failed |
| MAGRRLIIGDVHGHYRSLYRLLELADPDTDDQVYCLGDLIDRGPDSAKVVALVRSQGYTSLMGNHEHLLSQVLAFPDLSELRLHWFQAGGQATLASFGSWEALEELRPWLQQLPLYLDLGEIWLVHAGVDPDLPLSRQDANEFCWIRDQFLARSQPFFANKTILVGHTITCTMAGIQPGYVAAGAGWLGLDTGVYHPRSGWLTALDWDNQRVFQVQAQSNETRVCDLAERLQTVLSNPAKGRRSLLRYPRDQVSPS | failed |
